For four molecules, Kd results are on record in EP1007666B1 (GENENTECH, INC., dated 2005).

The target in assay [1] is T1, human NTNRα-IgG (soluble human NTNRα, product of pRK-hNTNRα-IgG) (human).
T1 construct: Used as conditioned medium of transiently transfected 293 cells; also called recombinant soluble human NTNRα; hNTNRα fusion
The experiment in a line: equilibrium binding of 125I-NTN with cold ligand to soluble NTNRα-IgG, protein A Sepharose precipitation, IGOR fit (data not shown).

Assay [2] has as its target T2, rat NTNRα-IgG (soluble rNTNRα, product of pRK-rNTNRα-IgG) (rat).
T2 construct: Used as conditioned medium of transiently transfected 293 cells; also called soluble rNTNRα protein; rat fusion protein
The assay can be described thus: equilibrium binding of 125I-NTN with cold ligand to soluble NTNRα-IgG, protein A Sepharose precipitation, IGOR fit.

For assay [3], the target named is T3, recombinant soluble rat GDNFRα (rat, UniProt Q62997 25-430, limits assumed).
T3 construct: also called rGDNFRα; GFR-alpha-1
T3 sequence (looked up): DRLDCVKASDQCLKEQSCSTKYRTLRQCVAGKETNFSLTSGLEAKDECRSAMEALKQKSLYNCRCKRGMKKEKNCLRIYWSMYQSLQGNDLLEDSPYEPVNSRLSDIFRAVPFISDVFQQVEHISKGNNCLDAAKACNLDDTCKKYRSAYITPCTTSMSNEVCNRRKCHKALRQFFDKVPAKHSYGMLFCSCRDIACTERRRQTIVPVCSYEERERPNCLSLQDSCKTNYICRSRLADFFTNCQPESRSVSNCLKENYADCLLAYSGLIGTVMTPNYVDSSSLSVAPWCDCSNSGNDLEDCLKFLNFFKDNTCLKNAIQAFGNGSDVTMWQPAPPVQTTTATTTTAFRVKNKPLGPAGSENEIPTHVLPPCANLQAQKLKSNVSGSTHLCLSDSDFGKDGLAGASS
The assay can be described thus: displaceable equilibrium binding of 125I-rGDNF to recombinant soluble rGDNFRα; Scatchard inset of Fig. 6B.

Assay [4] deals with T2, rat NTNRα-IgG (soluble rNTNRα, product …). The experiment in a line: binding experiments with biotinylated ligand, format not described.
Assay [5] has the same target. The experiment in a line: equilibrium binding of 125I-NTN with cold ligand to soluble NTNRα-IgG, protein A Sepharose precipitation, IGOR fit; Scatchard inset of Fig. 6C.

B1: human Neurturin (ligand, UniProt Q99748 96-197, looked up)
chain: ARLGARPCGLRELEVRVSELGLGYASDETVLFRYCAGACEAAARVYDLGLRRLRQRRRLRRERVRAQPCCRPTAYEDEVSFLDAHSRYHTVHELSARECACV
modifications: 125I-labelled in the direct binding assays; unlabelled as cold competitor
notes: also called human NTN; hNTN
As to B1, the Kd in assay [1] and in assay [2] was roughly 0.01 nM in each case.

B2: rat GDNF (ligand, UniProt Q07731 78-211, looked up)
chain: SPDKQAAALPRRERNRQAAAASPENSRGKGRRGQRGKNRGCVLTAIHLNVTDLGLGYETKEELIFRYCSGSCEAAETMYDKILKNLSRSRRLTSDKVGQACCRPVAFDDDLSFLDDSLVYHILRKHSAKRCGCI
modifications: 125I: iodinated either on tyrosine by the Bolton Hunter method or on lysine using lactoperoxidase
notes: also called rGDNF
As for B2, the Kd (commonly the equilibrium constant for the complex coming apart) in assay [3] was 3 pM.

B3: GDNF, species not stated at these places (ligand)
chain: SPDKQAAALPRRERNRQAAAASPENSRGKGRRGQRGKNRGCVLTAIHLNVTDLGLGYETKEELIFRYCSGSCEAAETMYDKILKNLSRSRRLTSDKVGQACCRPVAFDDDLSFLDDSLVYHILRKHSAKRCGCI
modifications: Biotinylated in the paragraph 22 experiment; natural form is a disulfide-linked homodimer
notes: also called biotinylated GDNF
B3 had an equilibrium dissociation constant (Kd) in assay [4] greater than 1 mM.

B4: mouse Neurturin (ligand, UniProt P97463 96-195, looked up)
chain: PGARPCGLRELEVRVSELGLGYTSDETVLFRYCAGACEAAIRIYDLGLRRLRQRRRVRRERARAHPCCRPTAYEDEVSFLDVHSRYHTLQELSARECACV
modifications: 125I-labelled in the direct binding assays; unlabelled as cold competitor
notes: also called mouse NTN; mNTN
As to B4, the Kd in assay [1] and in assay [5] was roughly 0.01 nM throughout.
